# Measurements reported in US20130109581A1, “POSITIVELY CHARGED SPECIES AS BINDING REAGENTS IN THE SEPARATION OF PROTEIN AGGREGATES FROM MONOMERS” (priority 2009, published 2013).
# Read-outs that look alike come from different tables or passages of the source. Where no end group is shown, it is not given here. [ ]: non-standard residue; d: D form. Ahx = NCCCCCC(=O)O
# Tests used:
# Type in all cases: binding
# Abeta 42 globulomer = Abeta 42 globulomer (Homo sapiens, UniProt P05067); test: NMPA with detergent washing after PSR1 pulldown: globulomer detection
# normal CSF Aβ42 = molecular target: T1, normal CSF Aβ42 (Homo sapiens, UniProt P05067); test: NMPA with detergent washing: background from unspiked CSF, Abeta42; conditions: CSF; PSR1 beads treated with detergent post capture
# T1 construct: reduced the detection of normal CSF Aβ42 to the background levels; from tissue; host or cells: pooled normal cerebrospinal fluid
# Description: Second, two neutral detergents, polyethylene glycol sorbitan monolaurate (available as TWEEN 20 from Sigma-Aldrich, St. Louis, Mo.) and n-tetradecyl-N,N-dimethyl-3-ammonio-1-propanesulfonate (available as ZWITTERGENT 3-14 from EMI) Chemicals, Gibbstown, N.J.) were used to treat the globulomer-spiked CSF samples that had been contacted with PSR1 beads. For each assay, a mixture of 30 μl of PSR1 beads (coated at about 7-12 nmol PSR1 ligand/mg DYNAL beads, which were used in this example and in the following examples unless otherwise stated) and 70 μl of 1×TBSTT was immediately pipetted into each well on the pulldown plate. The liquid was removed on a magnetic separator. Fifty micro liters of 5×TBSTT was added to each well. The beads were suspended by briefly shaking at 750 rpm. Next […] of TBSTT or CSF sample without globulomer was added to each well. The pulldown plate was sealed and incubated at 37° C. for 1 hour with shaking at 500 rpm. After incubation, the beads were washed 8 times with TBST on the plate washer. After the plate wash, residual TBST buffer was removed from the beads on the magnetic separator. The beads were then incubated with 100 μl of either TBS, 1% Tween20 or 1% Zwittergent 3-14 for 30 minutes at room temperature at 750 rpm, (followed by an additional 8 washes with TBST on the plate washer. After removing residual TBST on the magnetic separator, 20 μl of denaturing solution, typically 0.1-0.15 N NaOH, was added to the beads. The plate was covered with an aluminum foil plate sealer and incubated at 80° C. for 30 minutes with shaking at 750 rpm. After incubation, the plate was cooled to room temperature and twenty micro liters of neutralizing solution, typically 0.12-0.18 M NaH2PO4+0.4% Tween20) was added into each well and the plate was incubated at room temperature for 5 minutes with shaking at 750 rpm. […] MSD Abeta Triplex Assay was preformed according to the manufacturer's instructions.
# A summary of the assay results and calculated signal/noise is shown below in Table 17.
# Abeta 1-42 globulomer = molecular target: T2, Abeta 1-42 globulomer (Homo sapiens, UniProt P05067); test: Globulomer capture assay in CSF (Example 6); conditions: for globulomer capture: Abeta42 globulomer spiked into CSF, reagents on beads; for 42:40 (signal:noise ratio): 1 ng/ml average reading, ratio of 42 to 40; for 42, 1 ng/ml average reading: Abeta 1-42 globulomer spiked at 1 ng/mL into CSF
# T2 construct: beta amyloid (1-42) was monomerized with incubation in hexafluoroisopropanol
# Description: (§1) A series of new potential aggregate-specific binding reagents were designed as shown below and conjugated onto magnetic Dynal M270 beads as described in Example 2. Typically 7-12 nmol of ligand (each candidate aggregate-specific binding reagent) was coated onto 1 mg of beads.
# (§2) Aliquots of the beads (typically 3 ul) were added to wells of a 96 well plate, followed by sample (with or without Abeta 1-42 globulomer (an Abeta42 oligomer model) spiked in 80:20 CSF:TBSTT, typically 125 ul). The plate was sealed and incubated for 1 hour at 37° C. with shaking. The plate was washed with aqueous solutions of detergent (typically polyethylene glycol sorbitan monolaurate and n-tetradecyl-N,N-dimethyl-3-ammonio-1-propanesulfonate) to remove ubound material and the residual buffer removed. A denaturing solution (typically 0.1-0.15 N NaOH) was added to each well and the plate heated to 80° C. for 30 min with shaking. After cooling the plate to room temperature, a neutralizing buffer (typically 0.12-0.18 M NaH2PO3 in 0.4% TWEEN20,) was added and the plate was shaken briefly at room temperature. The bead eluate was analyzed using either an Aβ42-specific ELISA or the MSD® 96-Well MULTI-SPOT® Human/Rodent [4G8] Abeta Triplex Ultra-Sensitive Assay from Meso Scale Discovery (Gaithersburg, Md.). For the Aβ42-specific assay, the samples were eluted from the beads and a detection antibody (4G8 HRP) was added to a plate bearing the Aβ42-specific antibody 12F4. The plate was incubated for 1 hour, washed, the substrate was added (SuperSignal West Femto Maximum Sensitivity Substrate from Thermo Fisher, Rockville, Md.), and the luminescence was measured. The MSD plate assay was performed in a similar fashion, according to the manufacturer's protocol.
# (§3) In this experiment the preferred number of charges within a given scaffold was identified. An Ala/Lys peptide framework was utilized, where the inclusion of each Lys residue increases the peptides' net charge by +1. Six hexapeptides with increasing charge (+1→+6), AAAKAA, AAKKAA, AAKKKA, AKKKKA, AKKKKK, and KKKKKK, were prepared and conjugated on the beads. The ability of these beads to capture Abeta 1-42 globulomer spiked at 1 ng/mL into CSF was tested, and the result is shown in FIG. 25. The globulomer capture level (“42 1 ng/ml” or the closed bars) was compared to the background signal of Abeta 1-42 detected in the unspiked CSF (“42 0 ng/ml”) and the background signal of Abeta 1-40 detected in unspiked CSF (“40 0 ng/ml”) or CSF spiked with AB42 oligomers “40 1 ng/ml”. The charge density, as conjugated to the magnetic beads, of each reagent evaluated in this experiment is shown below in Table 8.
# Abeta 1-40 monomer = molecular target: T3, Abeta 1-40 monomer (Homo sapiens, UniProt P05067); test: Globulomer capture assay in CSF (Example 6): Abeta 1-40 noise; conditions: for 40, 1 ng/ml average reading: Abeta 1-40 signal (noise), CSF samples; for background monomeric Abeta capture (noise): CSF
# T3 construct: Abeta 1-40 monomer capture level; from tissue; host or cells: cerebrospinal fluid (matrix of the assay)
# Description: as §1, §2, §3
Molecule,globulomer capture (Abeta 1-42 globulomer),42:40 (signal:noise ratio) (Abeta 1-42 globulomer),"42, 1 ng/ml average reading (Abeta 1-42 globulomer)","40, 1 ng/ml average reading (Abeta 1-40 monomer)",other results
"CCCCCCCCc1ccc(C(=O)NCCC[N+](C)(C)CCCS(=O)(=O)[O-])cc1 [ASB-C8phn, 4-n-Octylbenzoylamido-propyl-dimethylammonio Sulfobetaine]",,,,,"Abeta 42 RLU, 0.5 ng/mL Abeta 42 globulomer, Average (Abeta 42 globulomer): 936.3 RLU; S/N Abeta 42 globulomer-spiked/Abeta 40 (Abeta 42 globulomer): 1.4; S/N Abeta 42 globulomer-spiked/unspiked (Abeta 42 globulomer): 9.3; Abeta 42 RLU, 0 ng/mL Abeta 42 globulomer, Average (normal CSF Aβ42): 100.7 RLU"
FoFooo,captured globulomers specifically,,,,
"CCCCCCCCCCCCCC(=O)NCCC[N+](C)(C)CCCS(=O)(=O)[O-] [ASB-14, Amidosulfobetaine-14,3-[N,N-Dimethyl(3-myristoylaminopropyl)ammonio]propanesulfonate]",,,,,"Abeta 42 RLU, 0.5 ng/mL Abeta 42 globulomer, Average (Abeta 42 globulomer): 779.3 RLU; S/N Abeta 42 globulomer-spiked/Abeta 40 (Abeta 42 globulomer): 2.0; S/N Abeta 42 globulomer-spiked/unspiked (Abeta 42 globulomer): 8.7; Abeta 42 RLU, 0 ng/mL Abeta 42 globulomer, Average (normal CSF Aβ42): 89.7 RLU"
"n-Dodecyl-N,N-dimethyl-3-ammonio-1-propanesulfonate [ZW3-12]",,,,,"S/N Abeta 42 globulomer-spiked/unspiked (Abeta 42 globulomer; 0.5 ng/mL vs 0 ng/mL globulomer): 7.1; S/N Abeta 42 globulomer-spiked/Abeta 40 (Abeta 42 globulomer; Abeta 42 RLU at 0.5 ng/mL over average Abeta 40 RLU): 1.4; Abeta 42 RLU, 0.5 ng/mL Abeta 42 globulomer, Average (Abeta 42 globulomer; CSF, PSR1 beads treated with detergent post capture): 642.0 RLU; Abeta 42 RLU, 0 ng/mL Abeta 42 globulomer, Average (normal CSF Aβ42): 90.7 RLU"
IRYVTHQYILWP,efficient at capturing globulomer,3.2,3242 RLUs,1011.5 RLUs,background monomeric Abeta capture (noise) (Abeta 1-40 monomer): captured significant amounts of background monomeric species
DFKLNFKF,,2,515.5 RLUs,259.5 RLUs,
CCCCCCCC[N+](C)(C)CCCS(=O)(=O)[O-] [ZW3-08],,,,,"Abeta 42 RLU, 0.5 ng/mL Abeta 42 globulomer, Average (Abeta 42 globulomer): 668.7 RLU; S/N Abeta 42 globulomer-spiked/Abeta 40 (Abeta 42 globulomer): 0.9; S/N Abeta 42 globulomer-spiked/unspiked (Abeta 42 globulomer): 6.8; Abeta 42 RLU, 0 ng/mL Abeta 42 globulomer, Average (normal CSF Aβ42): 97.7 RLU"
AAKKAA,,1.1,159.5 RLUs,147 RLUs,
F-fdb-F-fdb-fdb-fdb,more effective than the δ peptide,,,,
FKFKKK-link: FKFKKK peptide reagent with linker to bead at the right end; charge closest to the beads (FIG. 27) (not fully specified (C-terminus); printed as FKFKKK-link; also: attached to bead through link at right end),significantly better than the remainder of the beads,5.7,1995 RLUs,348 RLUs,
link-FKFKKK: FKFKKK peptide reagent with linker to bead at the left end (FIG. 27) (not fully specified (N-terminus); also: attached to bead through link at left end),able to capture globulomers,4.1,808 RLUs,198 RLUs,
FKFSLFSG,efficient at capturing globulomer,1.5,3078.5 RLUs,2011 RLUs,background monomeric Abeta capture (noise) (Abeta 1-40 monomer): captured significant amounts of background monomeric species
KKFKKF,captured globulomers specifically,,,,
AKKKKK,,2.5,442 RLUs,176 RLUs,
AKKKKA,significantly lower globulomer capture efficiency,2.1,322.5 RLUs,155.5 RLUs,
AAAKAA,,0.8,113.5 RLUs,134.5 RLUs,
FKFNLFSG,efficient at capturing globulomer,2.4,3230.5 RLUs,1327.5 RLUs,background monomeric Abeta capture (noise) (Abeta 1-40 monomer): captured significant amounts of background monomeric species
AAKKKA,,1.6,247 RLUs,159 RLUs,
Ac-KKKFKF: acetylated KKKFKF peptide conjugated to beads with the Ahx-Ahx-Cys-NH2 linker (Ac-KKKFKF[Ahx][Ahx]C-NH2; also: conjugated to beads via the linker),captured globulomer specifically,,,,
ANFFAHSS,,1.8,994.5 RLUs,543 RLUs,
KKKFKF-link: KKKFKF peptide reagent with linker to bead at the right end (FIG. 27) (not fully specified (C-terminus); also: attached to bead through link at right end),able to capture globulomers,3.9,748 RLUs,191.5 RLUs,
KFKKKF,captured globulomers specifically,,,,
KIGVVR,captured Abeta 1-42 globulomer at a high level that's similar to PSR1's globulomer capture level,,,,background monomeric Abeta capture (noise) (Abeta 1-40 monomer): low levels of monomeric Abeta 1-40 noise similar to PSR1's
